Measurements from patent US20090149389A1 (PURDUE RESEARCH FOUNDATION, published 2009).

How the values were obtained:
Assay in all cases: cell-based or functional assay
[1] = target: T1, MKK4 (m) (mouse (m), UniProt P47809 35-397, limits assumed)
T1 sequence (looked up): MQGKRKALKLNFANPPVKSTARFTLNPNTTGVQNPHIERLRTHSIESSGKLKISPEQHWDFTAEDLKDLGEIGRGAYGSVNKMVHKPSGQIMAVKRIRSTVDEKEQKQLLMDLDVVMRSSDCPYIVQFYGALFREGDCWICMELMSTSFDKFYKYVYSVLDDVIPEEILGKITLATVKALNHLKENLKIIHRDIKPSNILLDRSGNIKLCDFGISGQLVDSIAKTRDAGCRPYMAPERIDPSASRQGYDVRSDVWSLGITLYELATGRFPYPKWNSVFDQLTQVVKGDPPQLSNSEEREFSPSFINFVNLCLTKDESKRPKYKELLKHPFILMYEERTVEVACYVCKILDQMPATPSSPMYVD

[2] = target: BTK (h) (human (h), UniProt Q06187 1-659)
Sequence of BTK (h) (Q06187 whole entry): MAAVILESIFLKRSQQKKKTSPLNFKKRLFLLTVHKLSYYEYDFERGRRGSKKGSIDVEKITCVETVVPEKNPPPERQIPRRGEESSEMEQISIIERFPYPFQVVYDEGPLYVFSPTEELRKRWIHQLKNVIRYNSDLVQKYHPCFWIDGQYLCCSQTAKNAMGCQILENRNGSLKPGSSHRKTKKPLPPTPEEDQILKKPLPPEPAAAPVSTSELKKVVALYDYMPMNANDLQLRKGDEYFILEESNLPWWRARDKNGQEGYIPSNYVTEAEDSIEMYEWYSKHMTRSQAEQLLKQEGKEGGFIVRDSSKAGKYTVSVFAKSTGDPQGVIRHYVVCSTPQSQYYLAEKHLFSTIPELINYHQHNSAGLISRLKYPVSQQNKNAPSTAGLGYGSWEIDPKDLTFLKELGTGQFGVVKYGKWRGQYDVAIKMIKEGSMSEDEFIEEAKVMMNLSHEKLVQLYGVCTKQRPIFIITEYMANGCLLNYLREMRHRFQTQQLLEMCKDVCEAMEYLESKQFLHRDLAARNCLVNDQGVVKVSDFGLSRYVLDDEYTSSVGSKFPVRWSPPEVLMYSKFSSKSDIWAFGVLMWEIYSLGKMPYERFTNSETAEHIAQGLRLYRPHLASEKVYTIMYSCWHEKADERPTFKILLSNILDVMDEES

[3] = target: T2, Aurora-A (h) (human (h), UniProt O14965 1-403)
T2 sequence (looked up): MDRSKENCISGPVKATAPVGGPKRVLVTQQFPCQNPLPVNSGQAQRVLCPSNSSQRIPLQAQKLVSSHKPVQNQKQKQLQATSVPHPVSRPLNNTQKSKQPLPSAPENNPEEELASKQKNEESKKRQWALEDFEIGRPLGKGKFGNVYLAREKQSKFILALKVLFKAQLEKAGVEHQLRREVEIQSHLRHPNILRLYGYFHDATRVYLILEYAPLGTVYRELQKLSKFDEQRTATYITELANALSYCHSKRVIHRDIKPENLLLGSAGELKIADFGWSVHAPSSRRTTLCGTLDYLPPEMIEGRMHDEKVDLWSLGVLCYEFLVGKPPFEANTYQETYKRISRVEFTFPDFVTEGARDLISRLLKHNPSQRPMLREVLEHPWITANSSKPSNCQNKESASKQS

[4] = target: Src(1-530) (h) (human (h), UniProt P12931 1-530)
[5] = target: T3, Flt3 (h) (human (h), UniProt P36888 564-993, limits assumed)
T3 sequence (looked up): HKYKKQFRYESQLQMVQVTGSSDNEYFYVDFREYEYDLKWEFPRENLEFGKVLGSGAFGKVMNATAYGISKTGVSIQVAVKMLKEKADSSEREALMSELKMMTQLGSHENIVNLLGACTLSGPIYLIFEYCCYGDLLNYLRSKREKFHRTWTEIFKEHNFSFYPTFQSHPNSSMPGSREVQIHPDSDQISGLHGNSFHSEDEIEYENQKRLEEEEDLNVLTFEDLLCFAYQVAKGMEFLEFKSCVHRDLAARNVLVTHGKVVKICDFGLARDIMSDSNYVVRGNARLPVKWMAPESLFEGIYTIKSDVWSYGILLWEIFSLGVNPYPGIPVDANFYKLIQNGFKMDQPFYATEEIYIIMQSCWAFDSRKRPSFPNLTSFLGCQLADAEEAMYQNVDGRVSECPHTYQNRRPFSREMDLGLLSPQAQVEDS

[6] = target: ROCK-1 (h) (human (h), UniProt Q13464 17-535, limits assumed)
Sequence of ROCK-1 (h) (Q13464 17-535 limits assumed): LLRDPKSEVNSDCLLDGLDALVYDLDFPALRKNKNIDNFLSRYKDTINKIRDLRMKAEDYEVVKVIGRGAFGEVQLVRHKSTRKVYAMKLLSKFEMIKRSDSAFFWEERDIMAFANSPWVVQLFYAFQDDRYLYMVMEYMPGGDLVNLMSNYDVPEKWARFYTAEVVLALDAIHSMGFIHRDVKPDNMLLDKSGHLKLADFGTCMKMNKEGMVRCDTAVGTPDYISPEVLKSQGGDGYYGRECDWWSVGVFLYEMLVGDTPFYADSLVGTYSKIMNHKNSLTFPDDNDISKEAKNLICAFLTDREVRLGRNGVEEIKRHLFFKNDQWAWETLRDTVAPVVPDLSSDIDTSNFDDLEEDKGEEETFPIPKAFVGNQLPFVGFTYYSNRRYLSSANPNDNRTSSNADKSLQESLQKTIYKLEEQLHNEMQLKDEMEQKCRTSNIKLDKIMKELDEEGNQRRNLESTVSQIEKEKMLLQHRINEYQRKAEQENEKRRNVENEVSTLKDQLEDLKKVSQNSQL

[7] = target: Met (h) (human (h), UniProt P08581 974-1390, limits assumed)
Sequence of Met (h) (P08581 974-1390 limits assumed): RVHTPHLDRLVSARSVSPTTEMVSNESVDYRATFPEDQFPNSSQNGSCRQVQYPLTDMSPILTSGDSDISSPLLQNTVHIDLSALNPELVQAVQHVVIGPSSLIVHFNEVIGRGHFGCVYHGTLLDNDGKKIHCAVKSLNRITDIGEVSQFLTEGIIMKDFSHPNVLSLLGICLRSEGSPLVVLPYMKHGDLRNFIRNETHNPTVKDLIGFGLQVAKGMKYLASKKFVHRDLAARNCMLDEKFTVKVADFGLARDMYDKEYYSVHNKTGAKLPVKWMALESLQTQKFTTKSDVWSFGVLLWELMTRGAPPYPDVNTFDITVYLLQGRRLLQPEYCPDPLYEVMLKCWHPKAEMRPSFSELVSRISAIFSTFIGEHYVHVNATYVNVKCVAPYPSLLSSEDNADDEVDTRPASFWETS

[8] = target: T4, DYRK2 (h) (human (h), UniProt Q92630 1-601, limits assumed)
T4 sequence (looked up): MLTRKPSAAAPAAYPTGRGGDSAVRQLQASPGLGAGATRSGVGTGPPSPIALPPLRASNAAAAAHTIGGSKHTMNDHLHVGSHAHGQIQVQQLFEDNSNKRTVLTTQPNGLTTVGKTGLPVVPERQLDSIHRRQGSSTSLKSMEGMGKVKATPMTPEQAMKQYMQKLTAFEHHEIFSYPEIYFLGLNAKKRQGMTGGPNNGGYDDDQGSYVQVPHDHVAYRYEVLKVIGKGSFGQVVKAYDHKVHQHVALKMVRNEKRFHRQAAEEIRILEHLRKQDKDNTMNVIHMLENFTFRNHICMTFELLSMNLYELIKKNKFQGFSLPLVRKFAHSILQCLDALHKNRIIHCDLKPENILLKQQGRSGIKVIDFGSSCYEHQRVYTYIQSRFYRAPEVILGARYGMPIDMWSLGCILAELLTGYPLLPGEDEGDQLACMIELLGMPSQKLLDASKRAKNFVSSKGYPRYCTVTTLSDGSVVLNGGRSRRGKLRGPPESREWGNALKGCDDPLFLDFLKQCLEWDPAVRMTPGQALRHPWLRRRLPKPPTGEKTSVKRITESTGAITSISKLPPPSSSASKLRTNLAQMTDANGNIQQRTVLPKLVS

[9] = target: SAPK2 a (h) (human (h), UniProt Q16539 1-360)
Sequence of SAPK2 a (h) (Q16539 whole entry): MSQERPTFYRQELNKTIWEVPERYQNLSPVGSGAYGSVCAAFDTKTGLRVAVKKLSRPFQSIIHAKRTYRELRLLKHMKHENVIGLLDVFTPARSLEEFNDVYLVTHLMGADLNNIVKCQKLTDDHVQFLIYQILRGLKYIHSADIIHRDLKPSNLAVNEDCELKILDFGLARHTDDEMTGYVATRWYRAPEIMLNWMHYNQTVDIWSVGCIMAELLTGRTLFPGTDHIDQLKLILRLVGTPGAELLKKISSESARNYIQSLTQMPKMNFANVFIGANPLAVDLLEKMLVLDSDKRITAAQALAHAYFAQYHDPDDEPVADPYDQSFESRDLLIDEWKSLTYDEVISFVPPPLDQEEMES

[10] = target: T5, EphA2 (h) (human (h), UniProt P29317 591-976, limits assumed)
T5 sequence (looked up): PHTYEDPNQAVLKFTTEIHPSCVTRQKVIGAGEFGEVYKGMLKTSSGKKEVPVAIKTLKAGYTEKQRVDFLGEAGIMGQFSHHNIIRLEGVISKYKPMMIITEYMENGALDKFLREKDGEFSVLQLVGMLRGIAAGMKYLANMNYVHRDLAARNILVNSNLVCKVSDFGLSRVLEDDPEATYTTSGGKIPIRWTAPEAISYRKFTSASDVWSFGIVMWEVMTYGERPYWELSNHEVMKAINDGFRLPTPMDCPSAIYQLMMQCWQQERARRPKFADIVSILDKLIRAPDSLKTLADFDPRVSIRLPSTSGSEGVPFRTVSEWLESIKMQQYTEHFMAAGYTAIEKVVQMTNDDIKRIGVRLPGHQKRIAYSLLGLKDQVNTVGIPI

[11] = target: Syk (h) (human (h), UniProt P43405 1-635)
[12] = target: Abl (h) (human (h), UniProt P00519 27-1130, limits assumed)
Sequence of Abl (h) (P00519 27-1130 limits assumed): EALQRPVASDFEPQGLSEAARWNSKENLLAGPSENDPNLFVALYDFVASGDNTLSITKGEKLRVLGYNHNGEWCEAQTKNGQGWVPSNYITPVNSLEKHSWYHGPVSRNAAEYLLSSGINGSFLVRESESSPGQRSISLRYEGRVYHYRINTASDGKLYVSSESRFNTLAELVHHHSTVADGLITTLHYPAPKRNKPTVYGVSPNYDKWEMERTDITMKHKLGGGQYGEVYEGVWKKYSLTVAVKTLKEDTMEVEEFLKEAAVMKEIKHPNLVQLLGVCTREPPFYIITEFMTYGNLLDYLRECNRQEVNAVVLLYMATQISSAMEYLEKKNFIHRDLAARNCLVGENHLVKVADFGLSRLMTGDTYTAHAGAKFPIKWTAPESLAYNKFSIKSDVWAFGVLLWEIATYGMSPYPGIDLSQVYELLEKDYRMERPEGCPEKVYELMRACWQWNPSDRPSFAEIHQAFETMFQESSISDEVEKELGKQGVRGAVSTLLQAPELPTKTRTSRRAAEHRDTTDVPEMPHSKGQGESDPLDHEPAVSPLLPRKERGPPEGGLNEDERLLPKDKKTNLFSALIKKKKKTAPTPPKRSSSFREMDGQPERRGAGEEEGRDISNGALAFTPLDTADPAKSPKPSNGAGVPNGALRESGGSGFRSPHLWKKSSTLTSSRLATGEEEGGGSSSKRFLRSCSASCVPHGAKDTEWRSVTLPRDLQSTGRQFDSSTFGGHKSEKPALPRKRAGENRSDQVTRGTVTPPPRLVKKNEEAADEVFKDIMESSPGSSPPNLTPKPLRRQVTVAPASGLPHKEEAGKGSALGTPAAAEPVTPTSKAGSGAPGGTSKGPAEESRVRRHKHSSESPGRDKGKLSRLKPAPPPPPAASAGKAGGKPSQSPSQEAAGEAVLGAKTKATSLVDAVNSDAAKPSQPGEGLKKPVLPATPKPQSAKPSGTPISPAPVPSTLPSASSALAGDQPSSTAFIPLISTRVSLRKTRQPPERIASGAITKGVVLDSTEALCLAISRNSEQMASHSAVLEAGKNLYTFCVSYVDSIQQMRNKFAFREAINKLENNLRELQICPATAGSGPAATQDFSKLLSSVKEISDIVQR

What does the source list for KAFAKLAARLYRKALARQLGVAA?
Profile-1 @ = 100 µm (kinase profiler assay) [1]: 114; Profile-1 @ = 100 µm (kinase profiler assay) [2]: 16; Profile-1 @ = 100 µm (kinase profiler assay) [3]: 60; Profile-1 @ = 100 µm (kinase profiler assay) [4]: 3; Profile-1 @ = 100 µm (kinase profiler assay) [5]: 20; Profile-1 @ = 100 µm (kinase profiler assay) [6]: 29; Profile-1 @ = 100 µm (kinase profiler assay) [7]: 22; Profile-1 @ = 100 µm (kinase profiler assay) [8]: -10; Profile-1 @ = 100 µm (kinase profiler assay) [9]: 59; Profile-1 @ = 100 µm (kinase profiler assay) [10]: 22; Profile-1 @ = 100 µm (kinase profiler assay) [11]: 4; Profile-1 @ = 100 µm (kinase profiler assay) [12]: 55
